Drawing on paper PMC7473639, “Functionally distinct roles for T and Tbx6 during mouse development”, this text covers Kd for two molecules.

Series [1] addresses T1, Tbx6-DBD (T-domain) (mouse, UniProt P70327 90-277).
T1 sequence: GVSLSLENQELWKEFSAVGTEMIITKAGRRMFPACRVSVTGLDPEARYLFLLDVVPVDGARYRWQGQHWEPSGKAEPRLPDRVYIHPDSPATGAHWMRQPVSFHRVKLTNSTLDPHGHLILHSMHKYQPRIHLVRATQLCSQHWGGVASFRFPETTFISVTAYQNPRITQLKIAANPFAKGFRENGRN
Description: quantitative EMSA; Hill coefficient 2.97; 25 mM HEPES pH 7.4, 75 mM NaCl, 1 mM DTT, 0.25 mM EDTA, 0.1% NP-40, 1 mM MgCl2, 10% glycerol, 10 µg/ml BSA, 0.1 mg/ml poly dI-dC; room temperature, 20 min (1 h). The conditions noted are these: protein: recombinant; tags: N-terminal His (pET151/D-TOPO); Methods: removed by TEV; label: 32P 5' end label; blunt (annealed; only one strand given).

Series [2] addresses T1, Tbx6-DBD (T-domain). As to the kind of experiment: quantitative EMSA; Hill coefficient 3.18; 25 mM HEPES pH 7.4, 75 mM NaCl, 1 mM DTT, 0.25 mM EDTA, 0.1% NP-40, 1 mM MgCl2, 10% glycerol, 10 µg/ml BSA, 0.1 mg/ml poly dI-dC; room temperature, 20 min (1 h). Conditions: protein: recombinant; tags: N-terminal His (pET151/D-TOPO); Methods: removed by TEV; label: 32P 5' end label; blunt (annealed; only one strand given). A general note: Mobility shift assays separate free from complexed probe on a gel.

The target in series [3] is T2, T-DBD (Brachyury T-domain) (mouse, UniProt P20293 41-224).
T2 sequence: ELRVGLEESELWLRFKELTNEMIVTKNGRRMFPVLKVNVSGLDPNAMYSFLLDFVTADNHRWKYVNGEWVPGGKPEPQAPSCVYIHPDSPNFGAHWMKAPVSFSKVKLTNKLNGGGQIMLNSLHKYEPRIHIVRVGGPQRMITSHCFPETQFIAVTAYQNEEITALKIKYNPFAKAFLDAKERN
As to the kind of experiment: quantitative EMSA; Hill coefficient 14.42; 25 mM HEPES pH 7.4, 75 mM NaCl, 1 mM DTT, 0.25 mM EDTA, 0.1% NP-40, 1 mM MgCl2, 10% glycerol, 10 µg/ml BSA, 0.1 mg/ml poly dI-dC; room temperature, 20 min (1 h). The conditions noted are these: protein: recombinant; tags: N-terminal His (pET151/D-TOPO), removed by TEV; chain copies: 2; label: 32P 5' end label; blunt (annealed; only one strand given).

B1: Dll1 BS1 (dsDNA)
DNA 1: TCACTGTAGGTGTTGCTGTCCTGT
DNA 2: ACAGGACAGCAACACCTACAGTGA
As usually defined, the Kd is the equilibrium constant for the complex coming apart. As for B1, the dissociation constant Kd in the series with Tbx6-DBD (T-domain) [1] came to 1530 nM.

B2: Dll1 BS2 (dsDNA)
DNA 1: TCCCGAGGTGTGATTCTTGGA
DNA 2: TCCAAGAATCACACCTCGGGA
On to B2, for which the dissociation constant Kd came to 1300 nM in the series with Tbx6-DBD (T-domain) [2] and 13900 nM in series [3].
